Measurements published in IntAct's records for PubMed 19876371.

B1: Glucose-1-phosphate adenylyltransferase large subunit 1 (Solanum tuberosum (Potato)), Q00081 (parent)
chain: NKIKPGVAYSVITTENDTQTVFVDMPRLERRRANPKDVAAVILGGGEGTKLFPLTSRTATPAVPVGGCYRLIDIPMSNCINSAINKIFVLTQYNSAPLNRHIARTYFGNGVSFGDGFVEVLAATQTPGEAGKKWFQGTADAVRKFIWVFEDAKNKNIENIVVLSGDHLYRMDYMELVQNHIDRNADITLSCAPAEDSRASDFGLVKIDSRGRVVQFAEKPKGFDLKAMQVDTTLVGLSPQDAKKSPYIASMGVYVFKTDVLLKLLKWSYPTSNDFGSEIIPAAIDDYNVQAYIFKDYWEDIGTIKSFYNASLALTQEFPEFQFYDPKTPFYTSPRFLPPTKIDNCKIKDAIISHGCFLRDCSVEHSIVGERSRLDCGVELKDTFMMGADYYQTESEIASLLAEGKVPIGIGENTKIRKCIIDKNAKIGKNVSIINKDGVQEADRPEEGFYIRSGIIIILEKATIRDGTVI
partner: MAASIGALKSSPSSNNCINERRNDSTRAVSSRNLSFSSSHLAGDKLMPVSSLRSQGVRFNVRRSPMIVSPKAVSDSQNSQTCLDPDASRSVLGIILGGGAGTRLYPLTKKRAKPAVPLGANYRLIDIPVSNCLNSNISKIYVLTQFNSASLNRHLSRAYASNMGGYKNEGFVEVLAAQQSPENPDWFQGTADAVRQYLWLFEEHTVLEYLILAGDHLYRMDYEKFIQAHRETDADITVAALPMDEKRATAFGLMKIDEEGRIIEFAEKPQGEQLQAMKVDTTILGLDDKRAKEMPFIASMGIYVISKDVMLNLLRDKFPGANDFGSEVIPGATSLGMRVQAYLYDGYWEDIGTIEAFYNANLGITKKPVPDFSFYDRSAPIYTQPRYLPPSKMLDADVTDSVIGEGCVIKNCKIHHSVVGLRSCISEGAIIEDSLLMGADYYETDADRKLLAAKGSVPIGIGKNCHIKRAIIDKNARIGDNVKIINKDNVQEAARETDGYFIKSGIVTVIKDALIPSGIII

Variants of: B1
Conditions: with glgs_soltu glgs

| Variant | effect of a mutation on the interaction |
| --- | --- |
| NKIKPGVAYSVITTENDTQTVFVDMPRLERRRANPKDVAAVILGGGEGTKLFPLTSRTATPAVPVGGCYRLIDIPMSNCINSAINKIFVLTQYNSAPLNRHIARTYFGNGVSFGDGFVEVLAATQTPGEAGKKWFQGTADAVRKFIWVFEDAKNKNIENIVVLSGDHLYRMDYMELVQNHIDRNADITLSCAPAEDSRASDFGLVKIDSRGRVVQFAEKPKGFDLKAMQVDTTLVGLSPQDAKKSPYIASMGVYVFKTDVLLKLLKWSYPTSNDFGSEIIPAAIDDYNVQAYIFKDYWEDIGTIKSFYNASLALTQEFPEFQFYDPKTPFYTSPRFLPATKIDNCKIKDAIISHGCFLRDCSVEHSIVGERSRLDCGVELKDTFMMGADYYQTESEIASLLAEGKVPIGIGENTKIRKCIIDKNAKIGKNVSIINKDGVQEADRPEEGFYIRSGIIIILEKATIRDGTVI [P339A] | disrupting interaction |
| NKIKPGVAYSVITTENDTQTVFVDMPRLERRRANPKDVAAVILGGGEGTKLFPLTSRTATPAVPVGGCYRLIDIPMSNCINSAINKIFVLTQYNSAPLNAHIARTYFGNGVSFGDGFVEVLAATQTPGEAGKKWFQGTADAVRKFIWVFEDAKNKNIENIVVLSGDHLYRMDYMELVQNHIDRNADITLSCAPAEDSRASDFGLVKIDSRGRVVQFAEKPKGFDLKAMQVDTTLVGLSPQDAKKSPYIASMGVYVFKTDVLLKLLKWSYPTSNDFGSEIIPAAIDDYNVQAYIFKDYWEDIGTIKSFYNASLALTQEFPEFQFYDPKTPFYTSPRFLPPTKIDNCKIKDAIISHGCFLRDCSVEHSIVGERSRLDCGVELKDTFMMGADYYQTESEIASLLAEGKVPIGIGENTKIRKCIIDKNAKIGKNVSIINKDGVQEADRPEEGFYIRSGIIIILEKATIRDGTVI [R100A] | disrupting interaction |
| NKIKPGVAYSVITTENDTQTVFVDMPRLERRRANPKDVAAVILGGGEGTKLFPLTSRTATPAVPVGGCYRLIDIPMSNCINSAINKIFVLTQYNSAPLNRHIARTYFGNGVSFGDGFVEVLAATQTPGEAGKKWFQGTADAVRKFIWVFEDAKNKNIENIVVLSGDHLYRMDYMELVQNHIDRNADITLSCAPAEDSRASDFGLVKIDSRGRVVQFAEKPKGFDLKAMQVDTTLVGLSPQDAKKSPYIASMGVYVFKTDVLLKLLKWSYPTSNDFGSEIIPAAIDDYNVQAYIFKDYWEDIGTIKSFYNASLALTQEFPEFQFYDPKTPFYTSPRFLPPTKIDNCKAKDAIISHGCFLRDCSVEHSIVGERSRLDCGVELKDTFMMGADYYQTESEIASLLAEGKVPIGIGENTKIRKCIIDKNAKIGKNVSIINKDGVQEADRPEEGFYIRSGIIIILEKATIRDGTVI [I347A] | disrupting interaction |
| NKIKPGVAYSVITTENDTQTVFVDMPRLERRRANPKDVAAVILGGGEGTKLFPLTSRTATPAVPVGGCYRLIDIPMSNCINSAINKIFVLTQYNSAPLNRHIARTYFGNGVSFGDGFVEVLAATQTPGEAGKKWFQGTADAVRKFIWVFEDAKNKNIENIVVLSGDHLYRMDYMELVQNHIDRNADITLSCAPAEDSRASDFGLVKIDSRGRVVQFAEKPKGFDLKAMQVDTTLVGLSPQDAKKSPYIASMGVYVFKTDVLLKLLKWSYPTSNDFGSEIIPAAIDDYNVQAYIFKDYWEDIGTIKSFYNASLALTQEFPEFQFYDPKTPFYTSPRFLPPTKIDNCKIKDAAASHGCFLRDCSVEHSIVGERSRLDCGVELKDTFMMGADYYQTESEIASLLAEGKVPIGIGENTKIRKCIIDKNAKIGKNVSIINKDGVQEADRPEEGFYIRSGIIIILEKATIRDGTVI [I351A;I352A] | disrupting interaction |
| NKIKPGVAYSVITTENDTQTVFVDMPRLERRRANPKDVAAVILGGGEGTKLFPLTSRTATPAVPVGGCYRLIDIPMSNCINSAINKIFVLTQYNSAPLNRHIARTYFGNGVSFGDGFVEVLAATQTPGEAGKKWFQGTADAVRKFIWVFEDAKNKNIENIVVLSGDHLYRMDYMELVQNHIDRNADITLSCAPAEDSRASDFGLVKIDSRGRVVQFAEKPKGFDLKAMQVDTTLVGLSPQDAKKSPYIASMGVYVFKTDVLLKLLKWSYPTSNDFGSEIIPAAIDDYNVQAYIFKDYWEDIGTIKSFYNASLALTQEFPEFQFYDPKTPFYTSPRFLPPTKADNCKIKDAIISHGCFLRDCSVEHSIVGERSRLDCGVELKDTFMMGADYYQTESEIASLLAEGKVPIGIGENTKIRKCIIDKNAKIGKNVSIINKDGVQEADRPEEGFYIRSGIIIILEKATIRDGTVI [I342A] | disrupting interaction |
